Data set [1] has as its system HeLa Kyoto. Briefly: solubility in G1/S (NP-40 vs SDS abundance) (log2 ratio); higher = more soluble. Conditions: cell cycle stage: G1/S.
The test system of data set [2] is HeLa Kyoto. Briefly: solubility change mitosis vs G1/S (difference of NP-40 vs SDS log2 ratios) (log2 ratio difference); higher = more soluble in mitosis.
For data set [3], the system named is HeLa Kyoto. Briefly: thermal stability score vs G1/S (z-score of summed log2 fold changes over temperatures); higher = more thermally stable than in G1/S.
The mark [4] stands for this setting: cell cycle stage: early G1 (4.5 h after nocodazole release).
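Throughout, for solubility change mitosis vs G1/S (difference of NP-40 vs SDS log2 ratios): synchronized HeLa Kyoto cells (double thymidine block for G1/S, nocodazole release for mitosis), protein amounts in NP-40 versus SDS lysates quantified by mass spectrometry, three biological replicates.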
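Throughout, for solubility in G1/S (NP-40 vs SDS abundance): HeLa Kyoto cells arrested at G1/S by double thymidine block, proteins quantified by TMT10plex mass spectrometry in mild NP-40 versus SDS extracts, three biological replicates.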
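Throughout, for thermal stability score vs G1/S (z-score of summed log2 fold changes over temperatures): synchronized HeLa Kyoto cells, proteins quantified by TMT10plex mass spectrometry, three biological replicates, mitosis taken 0.5 h after nocodazole release, G1/S directly after double thymidine block.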

Consider “MDLPVDEWKSYLLQKWASLPTSVQVTISTAETLRDIFLHSSSLLQPEDELFLKRLSKGYLVGKDSDAPLFYREEGNKKFQEKDYTGAAVLYSKGVSHSRPNTEDMSLCHANRSAALFHLGQYETCLKDINRAQTHGYPERLQPKIMLRKAECLVALGRLQEASQTISDLERNFTATPALADVLPQTLQRNLHRLKMKMQEKDSLTESFPAALAKTLEDAALREENEQLSNASSSIGLCVDPLKGRCLVATKDILPGELLVQEDAFVSVLNPGELPPPHHGLDSKWDTRVTNGDLYCHRCLKHTLATVPCDGCSYAKYCSQECLQQAWELYHRTECPLGGLLLTLGVFCHIALRLTLLVGFEDVRKIITKLCDKISNKDICLPESNNQVKTLNYGLGESEKNGNIVETPIPGCDINGKYENNYNAVFNLLPHTENHSPEHKFLCALCVSALCRQLEAASLQAIPTERIVNSSQLKAAVTPELCPDVTIWGVAMLRHMLQLQCNAQAMTTIQHTGPKGSIVTDSRQVRLATGIFPVISLLNHSCSPNTSVSFISTVATIRASQRIRKGQEILHCYGPHKSRMGVAERQQKLRSQYFFDCACPACQTEAHRMAAGPRWEAFCCNSCGAPMQGDDVLRCGSRSCAESAVSRDHLVSRLQDLQQQVRVAQKLLRDGELERAVQRLSGCQRDAESFLWAEHAVVGEIADGLARACAALGDWQKSATHLQRSLYVVEVRHGPSSVEMGHELFKLAQIFFNGFAVPEALSTIQKAEEVLSLHCGPWDDEIQELQKMKSCLLDLPPTPVGPAL [SMYD4]”, for which the “solubility in G1/S (log2)” value with HeLa Kyoto [1] is -0.119. Moreover, the “solubility change mitosis (log2)” value with HeLa Kyoto [2] turned out to be 0.000145. The thermal stability score is 0.716 with HeLa Kyoto [3] (setting [4]) and 0.631 in the data set with HeLa Kyoto [3] (cell cycle stage: mitosis).

Take “MATLVELPDSVLLEIFSYLPVRDRIRISRVCHRWKRLVDDRWLWRHVDLTLYTMRPKVMWHLLRRYMASRLHSLRMGGYLFSGSQAPQLSPALLRALGQKCPNLKRLCLHVADLSMVPITSLPSTLRTLELHSCEISMAWLHKQQDPTVLPLLECIVLDRVPAFRDEHLQGLTRFRALRSLVLGGTYRVTETGLDAGLQELSYLQRLEVLGCTLSADSTLLAISRHLRDVRKIRLTVRGLSAPGLAVLEGMPALESLCLQGPLVTPEMPSPTEILSSCLTMPKLRVLELQGLGWEGQEAEKILCKGLPHCMVIVRACPKESMDWWM [FBXL12]”: in the data set with HeLa Kyoto [1], the “solubility in G1/S (log2)” value is -0.129. In addition, the “solubility change mitosis (log2)” value with HeLa Kyoto [2] is -0.183. Also, the thermal stability score was -0.861 with HeLa Kyoto [3] (setting [4]) and -0.543 with HeLa Kyoto [3] (cell cycle stage: mitosis).

Regarding “MAKREDSPGPEVQPMDKQFLVCSICLDRYQCPKVLPCLHTFCERCLQNYIPAQSLTLSCPVCRQTSILPEQGVSALQNNFFISSLMEAMQQAPDGAHDPEDPHPLSVVAGRPLSCPNHEGKTMEFYCEACETAMCGECRAGEHREHGTVLLRDVVEQHKAALQRQLEAVRGRLPQLSAAIALVGGISQQLQERKAEALAQISAAFEDLEQALQQRKQALVSDLETICGAKQKVLQSQLDTLRQGQEHIGSSCSFAEQALRLGSAPEVLLVRKHMRERLAALAAQAFPERPHENAQLELVLEVDGLRRSVLNLGALLTTSATAHETVATGEGLRQALVGQPASLTVTTKDKDGRLVRTGSAELRAEITGPDGTRLPVPVVDHKNGTYELVYTARTEGELLLSVLLYGQPVRGSPFRVRALRPGDLPPSPDDVKRRVKSPGGPGSHVRQKAVRRPSSMYSTGGKRKDNPIEDELVFRVGSRGREKGEFTNLQGVSAASSGRIVVADSNNQCIQVFSNEGQFKFRFGVRGRSPGQLQRPTGVAVDTNGDIIVADYDNRWVSIFSPEGKFKTKIGAGRLMGPKGVAVDRNGHIIVVDNKSCCVFTFQPNGKLVGRFGGRGATDRHFAGPHFVAVNNKNEIVVTDFHNHSVKVYSADGEFLFKFGSHGEGNGQFNAPTGVAVDSNGNIIVADWGNSRIQVFDSSGSFLSYINTSAEPLYGPQGLALTSDGHVVVADAGNHCFKAYRYLQ [TRIM3]”, in the data set with HeLa Kyoto [1], the “solubility in G1/S (log2)” value is -0.0387. For the same sequence, the “solubility change mitosis (log2)” value in the data set on HeLa Kyoto [2] is -0.138. In addition, the thermal stability score in the data set with HeLa Kyoto [3] (setting [4]) was determined as 0.13; in the data set on HeLa Kyoto [3] (cell cycle stage: mitosis), 0.0555.

Regarding “MAAVVAATALKGRGARNARVLRGILAGATANKASHNRTRALQSHSSPEGKEEPEPLSPELEYIPRKRGKNPMKAVGLAWYSLYTRTWLGYLFYRQQLRRARNRYPKGHSKTQPRLFNGVKVLPIPVLSDNYSYLIIDTQAQLAVAVDPSDPRAVQASIEKEGVTLVAILCTHKHWDHSGGNRDLSRRHRDCRVYGSPQDGIPYLTHPLCHQDVVSVGRLQIRALATPGHTQGHLVYLLDGEPYKGPSCLFSGDLLFLSGCGRTFEGNAETMLSSLDTVLGLGDDTLLWPGHEYAEENLGFAGVVEPENLARERKMQWVQRQRLERKGTCPSTLGEERSYNPFLRTHCLALQEALGPGPGPTGDDDYSRAQLLEELRRLKDMHKSK [PNKD]”, the “solubility in G1/S (log2)” value in the data set with HeLa Kyoto [1] was -0.0413. Also, the “solubility change mitosis (log2)” value in the data set with HeLa Kyoto [2] is -0.135. Also, the results for the thermal stability score in the data set with HeLa Kyoto [3] (setting [4]) and with HeLa Kyoto [3] (cell cycle stage: mitosis) were 0.265 and -0.394, respectively.

These data come from the supplement of paper PMC5998384.
